Experimental data from patent publication US20120237528A1 (Janssen / Centocor, published 2012).
Positions count from the first letter of the chain named.

T1: Cynomolgous monkey (cyno) TF-ECD with His Tag (cynomolgus monkey, UniProt P13726 33-251 (human entry))
T1 construct: also called cyno antigen
T1 chain: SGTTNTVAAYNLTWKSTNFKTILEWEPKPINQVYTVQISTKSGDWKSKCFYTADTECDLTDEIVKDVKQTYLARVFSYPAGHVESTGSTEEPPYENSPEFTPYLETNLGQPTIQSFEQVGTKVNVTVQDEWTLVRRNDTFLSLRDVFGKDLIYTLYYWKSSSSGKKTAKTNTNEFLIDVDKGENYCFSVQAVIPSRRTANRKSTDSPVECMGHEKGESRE

B1: M16 (antibody, V domains shown)
VH: QVQLVQSGAEVKKPGASVKVSCKASGYTFITYWIEWVRQAPGQGLEWMGDILPGSGSTNYNENFKGRVTMTRDTSTSTVYMELSSLRSEDTAVYYCARSGYYGNSGFAYWGQGTLVTVSS
VL: DIVMTQSPDSLAVSLGERATINCKSSQSLLSSGNQKNYLTWYQQKPGQPPKLLIYWASTRESGVPDRFSGSGSGTDFTLTISSLQAEDVAVYYCQNDYTYPLTFGQGTKLEIK
notes: complete MAb; FR4 is its own entry; also called H16/L2
B2: M1, 10H10 mouse-human chimera (antibody, V domains shown)
VH: QVHLQQSGAELMKPGASVKISCKASGYTFITYWIEWVKQRPGHGLEWIGDILPGSGSTNYNENFKGKATFTADSSSNTAYMQLSSLTSEDSAVYYCARSGYYGNSGFAYWGQGTLVTVSA
VL: DIVMTQSPSSLTVTAGEKVTMSCKSSQSLLSSGNQKNYLTWYQQIPGQPPKLLIYWASTRESGVPDRFTGSGSGTDFTLTINSVQAEDLAVYYCQNDYTYPLTFGAGTKLELK
notes: also called H13/L1; parent chimeric antibody
B3: M59 (antibody, V domains shown)
VH: EVQLVQSGAEVKKPGESLRISCKGSGYTFITYWIEWVRQMPGKGLEWMGDILPGSGSTNYSPSFQGHVTISADKSISTAYLQWSSLKASDTAMYYCARSGYYGNSGFAYWGQGTLVTVSS
VL: DIVMTQTPLSLPVTPGEPASISCKSSQSLLSSGNQKNYLTWYLQKPGQSPQLLIYWASTRESGVPDRFSGSGSGTDFTLKISRVEAEDVGVYYCQNDYTYPLTFGQGTKLEIK
notes: FR4 is its own entry; also called H22/L3
B4: M9 (antibody, V domains shown)
VH: B3 VH with S61N, P62E, S63N, Q65K
VL: B1 VL
notes: complete MAb; FR4 is its own entry; also called H15/L2
B5: M11 (antibody, V domains shown)
VH: B3 VH with S61N, P62E, S63N, Q65K
VL: B3 VL with T7S
notes: complete MAb; FR4 is its own entry; also called H15/L4
B6: M58 (antibody, V domains shown)
VH: B3 VH
VL: B1 VL
notes: complete MAb; FR4 is its own entry; also called H22/L2
B7: M19 (antibody, V domains shown)
VH: B1 VH
VL: B3 VL with P12S, E17Q, S49P
notes: complete MAb; FR4 is its own entry; also called H16/L5
B8: M12 (antibody, V domains shown)
VH: B3 VH with S61N, P62E, S63N, Q65K
VL: B3 VL with P12S, E17Q, S49P
notes: complete MAb; FR4 is its own entry; also called H15/L5
B9: M1584 (antibody, V domains shown)
VH: B3 VH with I30V, S55T, S57Y, N59V
VL: B3 VL
notes: complete MAb; FR4 is its own entry; also called H173/L3
B10: M1612 (antibody, V domains shown)
VH: B3 VH with I30N, T31P, S55T, S57Y
VL: B3 VL
notes: complete MAb; FR4 is its own entry; also called H133/L3; TF7M1612
B11: M1611 (antibody, V domains shown)
VH: B3 VH with I30G, T31P, S57Y, N59T
VL: B3 VL
notes: complete MAb; FR4 is its own entry; also called H128/L3
B12: M1607 (antibody, V domains shown)
VH: B3 VH with Y27F, E35A, G54A, G56S
VL: B3 VL
notes: complete MAb; FR4 is its own entry; also called H189/L3; TF7M1607
B13: M1593 (wild-type human IgG1/kappa constant domains) (antibody)
heavy: not shown
light: DIVMTQTPLSLPVTPGEPASISCKSSQSLLSSGNQKNYLTWYLQKPGQSPQLLIYWASTRESGVPDRFSGSGSGTDFTLKISRVEAEDVGVYYCQNDYTYPLTFGQGTKLEIKRTVAAPSVFIFPPSDEQLKSGTASVVCLLNNFYPREAKVQWKVDNALQSGNSQESVTEQDSKDSTYSLSSTLTLSKADYEKHKVYACEVTHQGLSSPVTKSFNRGEC
notes: produced in unmodified CHO; also called H171/L3; copies: 2 + 2

These binders were tested against T2, endogenous human tissue factor on MDA-MB-231 breast cancer cells (human, UniProt P13726 33-295) (assay: cell-based or functional assay).

IL-8 Induction, Ave % inhibition [%]	Binder
109	B1
106	B2
103	B3
106	B4
93	B5
106	B6
106	B7
102	B8

What follows are binders tested against T3, recombinant extracellular domain (ECD) of human TF, amino acid 1-219 of the mature chain, C-terminal His6-tag (human, UniProt P13726 33-251) (assay: Biacore).
T3 construct: expressed in a mammalian system; used for ELISA and Biacore; biotinylated by NHS-ester for the Fab ELISA; also called His6-TF-ECD1-219; HumanTF1-219

Kd [nM]	Binder
0.66	B1
0.56	B2
0.61	B4
0.37	B5
0.2	B6
0.41	B7
0.55	B8

Target: T1, Cynomolgous monkey (cyno) TF-ECD with …
Assay: Biacore

Kd [nM]	Binder
1.96	B1
1.34	B2
1.28	B3
1.55	B4
1.52	B5
1.18	B6
2.81	B7
2.24	B8

Target: T2, endogenous human tissue factor on …
Assay: cell-based or functional assay
Remark: another data set of the same source

IC50 (ug/ml), IL-8 induction assay [µg/mL]	Binder
0.527	B2
0.382	B3
0.332	B9
0.413	B10
0.398	B11
0.395	B12

Each binder was assayed against T3, recombinant extracellular domain (ECD) … (assay: TF-ECD binding ELISA, chemiluminescent).

EC50 [ng/mL]	Binder
9.31	B1
11.7	B2
8.8	B3
9.8	B4
9.94	B5
9.03	B6
9.22	B7
10.1	B8

Target: T1, Cynomolgous monkey (cyno) TF-ECD with …
Assay: TF-ECD binding ELISA, chemiluminescent

EC50 [µg/mL]	Binder
0.0234	B1
0.0173	B2
0.0187	B3
0.0199	B4
0.0187	B5
0.0198	B6
0.0296	B7
0.0228	B8

Each binder was assayed against T4, recombinant human FcγIIIa receptor (human, UniProt P08637 17-208, limits assumed) (assay: Fc receptor binding assay (method of a co-pending application or Biacore)).
T4 construct: also called FcγRIIIa
T4 sequence (P08637 17-208 limits assumed): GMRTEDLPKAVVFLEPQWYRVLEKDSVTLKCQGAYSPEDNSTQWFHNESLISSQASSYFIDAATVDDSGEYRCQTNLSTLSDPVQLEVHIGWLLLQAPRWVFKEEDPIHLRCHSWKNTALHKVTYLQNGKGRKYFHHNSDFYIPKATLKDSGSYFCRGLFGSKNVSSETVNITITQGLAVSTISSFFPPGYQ

Kd [nM]	Binder
210	B13

These binders were tested against T2, endogenous human tissue factor on … (assay: FACS on MDA-MB-231 cells).
Experimental: This assay is used to detect the direct binding of antibody to endogenouse human TF expressed in breast cancer cells. Prepare four point titrations of the test mAbs in FACS buffer (1% FBS in PBS) in duplicate. Start a titration at 1,000 ng/ml with 1:4 dilutions. […] Unstained cells and secondary antibody, Cy-5 conjugated Goat anti-Human IgG Fc antibody in FACS buffer 1:200, is used as controls and prepared immediately before use.
Using standard tissue culture technique, rinse adherent MDA-MB-231 cells in culture flask with once with PBS (w/o Ca+2/Mg+2). Lift cells with Versene and count the cells and seed 200,000 cells per well in a polystyrene V-bottom plate. FACS Analysis Protocol: Tissue Factor Binding. Pellet the cells in a Allegra X-15R centrifuge at 450×g for 3 minutes at 4° C., resuspend in FACS Buffer (2% FBS in PBS) and plate 200,000 cells per well in 200 uL. Pellet cells at 450×g for 3 minutes at 4° C. Discard supernatants and add 100 uL/well test or control mAbs to designated wells and incubate on ice or at 4° C. for 1 hour (+/−10 minutes). Pellet cells at 450×g for 3 minutes at 4° C. Discard supernatants and wash cells once in FACS buffer. Resuspend cells in 200 uL/well FACS buffer and pellet cells at 450×g for 3 minutes at 4° C. Discard supernatants and add 100 uL/well secondary antibody to designated wells (triterate), and incubate on ice for 1 hour (+/−10 minutes). Pellet cells at 450×g for 3 minutes at 4° C. Discard supernatants and wash cells 2 times in FACS buffer before resuspending the cells in 200 uL/well FACS Buffer (triterate). Pellet cells at 450×g for 3 minutes at 4° C. Discard supernatant and resuspend cells in 100 uL/well CytoFix Buffer. Analyze reactions by flow cytometry (BD FACSArray). The FlowJo Software is used for FACS data analysis by gating the main population of cells in the unstained control well and applying the gate to the whole data set. The data is exported as a table of the geometric mean fluorescence intensity (MFI) in the red channel for the applied gate.

Whole Cell Binding, Ave % [%]	Binder
109	B1
101	B2
107	B4
114	B5
94	B6
111	B7
124	B8

Target: T2, endogenous human tissue factor on …
Assay: cell-based or functional assay
Remark: another data set of the same source

% IL-8 Inhibition [%]	Binder
98.3	B1
96.1	B2
83.8	B3
103	B4
87.9	B5
88.5	B6
87.3	B7
98.6	B8

Target: T3, recombinant extracellular domain (ECD) …
Assay: Biacore
Remark: another data set of the same source

Kd [nM]	koff [s⁻¹]	kon [M⁻¹ s⁻¹]	Binder
0.66	6.7e-05	102000	B1
0.61	5.9e-05	97300	B4
0.36	–	–	B5
0.3	5.6e-05	184000	B9
0.19	1.8e-05	94800	B6
0.41	4.1e-05	98800	B7
0.38	6.3e-05	165000	B10
0.55	5.1e-05	92200	B8
0.31	5.9e-05	192000	B11
0.35	6e-05	170000	B12

These binders were tested against T4, recombinant human FcγIIIa receptor (assay: cell-based or functional assay).

EC50 (read off the curve) [µg/mL]	Binder
~0.02	B13
~0.07	B2

These binders were tested against Innovin, lyophilized recombinant human tissue factor combined with phospholipids (human, UniProt P13726 33-295, limits assumed) (assay: cell-based or functional assay).

T½ Max (seconds), coagulation of human plasma [s]	Binder
164	B13
198	B1
173	B2
169	B3
198	B4
195	B5
199	B9
192	B6
199	B7
163	B10
197	B8
154	B11
152	B12
